Columns and labels:
[1] = molecular target: the molecule itself; test: proteoliposome docking assay (co-isolation of liposomes on streptavidin beads); biotin-labeled Sey1p proteoliposomes held on streptavidin magnetic beads and Rh-labeled Sey1p proteoliposomes (500 uM lipid each) in RB500 with 2 mM MgCl2 and 1 mM GTP, 30 °C, 30 min; Rh fluorescence of co-isolated liposomes; complete ER-mimicking lipids and four lipid subsets (Table 1)
[2] = molecular target: the molecule itself; test: pull-down; GST-Sey1p and His6-Sey1p, 4 uM each, mixed in RB150 (20 mM Hepes-NaOH pH 7.4, 150 mM NaCl, 10% glycerol) with 0.4% Triton X-100, 2 mM MgCl2 and 1 mM GTP, 4 °C; GST-Sey1p isolated on glutathione-Sepharose 4B; SDS-PAGE, Coomassie Blue

B1: untagged full-length Sey1p reconstituted into proteoliposomes (natural protein, S. cerevisiae)
chain: GPGMADRPAIQLIDEEKEFHQSALQYFQQCIGNRDVGLDYHVISVFGSQSSGKSTLLNVLFNTNFDTMDAQVKRQQTTKGIWLAHTKQVNTTIEIDNDRPDIFVLDVEGSDGSERGEDQDFERKAALFAIAVSEVLIVNMWEQQIGLYQGNNMALLKTVFEVNLSLFGKNDNDHKVLLLFVIRDHVGVTPLSSLSDSVTRELEKIWTELSKPAGCEGSSLYDYFDLKFVGLAHKLLQEDKFTQDVKKLGDSFVMKGTENYYFKPQYHHRLPLDGWTMYAENCWDQIERNKDLDLPTQQILVARFKTEEISNEALEEFISKYDESIAPLKGNLGSLTSQLVKLKEECLTKYDEQASRYARNVYMEKREALNTKLNSHISGTINEFLESLMEKLWDDLKLEVSSRDKATTSFVESVAAGKSKIEKEFNESMETFKKLGLLISNEEITCKFSDDIEERIKQLRDAELKAKIGRIKKNLVPELKDHVIHLLSHPSKKVWDDIMNDFESTIKDNISAYQVEKDKYDFKIGLSESENAKIYKNIRILAWRTLDTTVHDYLKIDTIVSILRDRFEDVFRYDAEGSPRLWKTEEEIDGAFRVAKEHALEVFEVLSLAVTSDNVEIIPDVPMAEEESGEDNEIYRDNEGVFHSRRFAHILTELQKENVLDQFRRQINITVLDSKRSIITTRTHIPPWIYVLLAVLGWNEFVAVIRNPLFVTLTLILGATFFVIHKFGLWGPVVNVVQSAVGETRTAIKDKLRQFVVEDHEVKESFEMKDFSKNEQKEK
notes: three extra N-terminal residues (Gly-Pro-Gly) left after 3C protease cleavage, printed in three-letter code; Inserted by its two C-terminal transmembrane domains into liposomes; Protein-to-lipid ratio 1/500 (mol/mol); also called untagged form of Sey1p; Sey1p proteoliposomes; not shown: His6, N-terminal, cleaved
[1]
  binding result: binds

B2: Sey1p (tagged full-length recombinant Sey1p: GST-His6-3C-Sey1p and His6-3C-Sey1p) (natural protein, S. cerevisiae, UniProt Q99287 1-776, looked up)
chain: MADRPAIQLIDEEKEFHQSALQYFQQCIGNRDVGLDYHVISVFGSQSSGKSTLLNVLFNTNFDTMDAQVKRQQTTKGIWLAHTKQVNTTIEIDNDRPDIFVLDVEGSDGSERGEDQDFERKAALFAIAVSEVLIVNMWEQQIGLYQGNNMALLKTVFEVNLSLFGKNDNDHKVLLLFVIRDHVGVTPLSSLSDSVTRELEKIWTELSKPAGCEGSSLYDYFDLKFVGLAHKLLQEDKFTQDVKKLGDSFVMKGTENYYFKPQYHHRLPLDGWTMYAENCWDQIERNKDLDLPTQQILVARFKTEEISNEALEEFISKYDESIAPLKGNLGSLTSQLVKLKEECLTKYDEQASRYARNVYMEKREALNTKLNSHISGTINEFLESLMEKLWDDLKLEVSSRDKATTSFVESVAAGKSKIEKEFNESMETFKKLGLLISNEEITCKFSDDIEERIKQLRDAELKAKIGRIKKNLVPELKDHVIHLLSHPSKKVWDDIMNDFESTIKDNISAYQVEKDKYDFKIGLSESENAKIYKNIRILAWRTLDTTVHDYLKIDTIVSILRDRFEDVFRYDAEGSPRLWKTEEEIDGAFRVAKEHALEVFEVLSLAVTSDNVEIIPDVPMAEEESGEDNEIYRDNEGVFHSRRFAHILTELQKENVLDQFRRQINITVLDSKRSIITTRTHIPPWIYVLLAVLGWNEFVAVIRNPLFVTLTLILGATFFVIHKFGLWGPVVNVVQSAVGETRTAIKDKLRQFVVEDHEVKESFEMKDFSKNEQKEK
notes: The bait copy is GST-His6-3C-Sey1p (pET-41 Ek/LIC) and the prey copy is His6-3C-Sey1p (pET-30 Ek/LIC); GST is on the bait copy only; The tags were not cleaved in the pull-down; also called GST-Sey1p; His6-Sey1p; source: E. coli Rosetta 2(DE3)pLysS, purified (COSMOGEL His-Accept beads, imidazole elution, dialysis; in 0.4% Triton X-100); not shown: His6, N-terminal, kept; GST, N-terminal, kept
[2]
  binding result: binds
